According to patent publication US20180237511A1 (Sanofi, published 2018):
Where a chain is given by its changes, count along the chain named. Each block holds one binder with its values, some of them ahead of it.

Tests used:
[1] = biological target: T1, human laminin G-like 5 domain of laminin-2 (hLG-5) (human, UniProt P24043 2936-3122, soluble biotinylated protein (Avi tag)); experiment: SPR (Biacore) kinetics; mAb immobilized, hLG-5 in flow
T1 construct: The construct used for the crystal structure with C21 Fab is not described; the same entry is used; also called human LG-5; human LG5; not shown: N-terminal Avi and HPC4 tags
T1 sequence: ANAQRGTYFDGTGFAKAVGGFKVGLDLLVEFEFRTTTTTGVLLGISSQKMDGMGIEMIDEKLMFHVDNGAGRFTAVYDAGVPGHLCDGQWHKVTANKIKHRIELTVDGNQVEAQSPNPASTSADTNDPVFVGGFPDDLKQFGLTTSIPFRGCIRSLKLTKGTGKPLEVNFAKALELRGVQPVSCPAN

[2] = biological target: T2, human beta-dystroglycan extracellular domain (soluble) (human, UniProt Q14118 654-749); experiment: sequential SPR (Biacore T100): antibody captured on a Protein G chip, 200 nM human LG4/5 for 60 s, then 200 nM human beta-DG for 60 s
T2 construct: extracellular domain; The expression construct of soluble human beta-DG is not described (only the mouse one); also called hBeta-DG; hbeta-DG
T2 sequence (looked up): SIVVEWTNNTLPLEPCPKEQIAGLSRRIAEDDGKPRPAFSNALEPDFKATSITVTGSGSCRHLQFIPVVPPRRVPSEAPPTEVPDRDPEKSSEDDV
Procedure: For sequential dual binding of antigens to trivalent antibodies, a Series S Sensor Protein G chip (GE Healthcare, 29179315) was used with a T100 Biacore. This chip was used to immobilize trivalent or parental antibody to the surface (60 seconds with 5 ug/mL of antibody). After capture, 200 nM of LG4/5 was flowed over the chip for 60 seconds followed by 200 nM of beta-DG for 60 seconds. Binding to the trivalent antibody was observed by the change of mass detected on the chip in relative units (RU).
Additionally, surface plasmon resonance was performed to show sequential binding of the human laminin-2 and beta-DG antigens (FIG. 1C).

[3] = biological target: T3, human laminin G-like 4 and 5 domains of laminin-2 (hLG-4/5), soluble (human, UniProt P24043 2729-3122, biotinylated in the ELISA of Example 6); experiment: SPR, antibody on Protein G chip, LG4/5 in flow, 1:1 model (table title says beta-DG; paragraph 445 says human laminin-2)
T3 construct: range 2729-3122; also called human LG-4/5; hLG4/LG5; not shown: Avi tag and HPC4 tag left after TEV cleavage of the N-terminal mIgG2a fusion partner
T3 sequence (looked up): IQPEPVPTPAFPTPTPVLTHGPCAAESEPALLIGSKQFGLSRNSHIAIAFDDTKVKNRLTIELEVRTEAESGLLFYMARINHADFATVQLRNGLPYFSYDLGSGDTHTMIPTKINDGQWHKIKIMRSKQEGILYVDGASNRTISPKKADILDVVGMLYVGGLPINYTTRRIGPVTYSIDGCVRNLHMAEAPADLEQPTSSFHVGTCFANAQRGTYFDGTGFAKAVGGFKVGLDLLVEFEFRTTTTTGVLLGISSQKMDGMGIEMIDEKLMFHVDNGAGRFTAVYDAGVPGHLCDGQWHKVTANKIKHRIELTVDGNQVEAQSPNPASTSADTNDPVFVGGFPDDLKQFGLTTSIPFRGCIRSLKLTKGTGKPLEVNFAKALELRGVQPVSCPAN
Procedure: (§1) Data was evaluated with a 1:1 binding model using the BIAevaluation software.
(§2) SPR was used as described above to analyze the kinetics of triAb binding to laminin-2 (Table N) or beta-DG (Table O).

[4] = biological target: T2, human beta-dystroglycan extracellular …; experiment: SPR, antibody on Protein G chip, beta-DG in flow, 1:1 model (table title says laminin-2; paragraph 445 says human beta-DG)
Procedure: as §1, §2

- binding result [2]: no binding (tested: 200 nM)
B3: humanized anti-laminin-2 antibody C21_Hu11 (antibody, V domains shown)
VH: EVQLVESGGGLVKPGGSLRLSCAASGFTFSSYTMSWVRQAPGKGLEWVASISSSGSNTYYPDSVKGRFTISRDNAKNNLYLQMNSLRAEDTALYYCARFDYGSSLDSWGQGTLLTVSS
VL: EIVLTQSPDFLSVTPKEKVTLSCRASQSISNYLHWYQQKSDQSPKLLIKYASQSISGIPSRFSGSGSGTDFTLSINSVEAEDAATYFCQQSKSWPRTFGGGTKLEIK
notes: Called monovalent anti-LG4/5 antibody

- Kd [3]: 8.99 nM
- koff [3]: 0.00144 s⁻¹
- kon [3]: 160000 M⁻¹ s⁻¹
- binding result [2]: no binding (tested: 200 nM)
B4: humanized anti-laminin-2 antibody C21_Hu21 (antibody, V domains shown)
VH: B3 VH with K13Q, S50T, S56D, A75S, N78T, N84S, L113T
VL: B3 VL with K16G, S22T, I58V, S74T, N76S, A83F
notes: as for B3

- Kd [3]: 9.83 nM
- koff [3]: 0.00117 s⁻¹
- kon [3]: 119000 M⁻¹ s⁻¹
- binding result [2]: no binding (tested: 200 nM)
B5: humanized anti-laminin-2 antibody C3_Hu11 (antibody, V domains shown)
VH: B3 VH
VL: B3 VL with S22T, S30G, Y32N, S74T
notes: as for B3

- Kd [4]: 1.6 nM
- koff [4]: 0.00433 s⁻¹
- kon [4]: 2.7e+06 M⁻¹ s⁻¹
B7: triAb 3423 (bispecific antibody)
light 1: EIVLTQSPDFLSVTPKEKVTLSCRASQSISNYLHWYQQKSDQSPKLLIKYASQSISGIPSRFSGSGSGTDFTLSINSVEAEDAATYFCQQSKSWPRTFGGGTKLEIKDKTHTEIVLTQSPDFLSVTPKEKVTLTCRASQSISNNLHWYQQKSDQSPKLLIKYASQSISGIPSRFSGSGSGTDFTLTINSVEAEDAATYFCQQSKSWPRTFGGGTKLEIKDKTHTRTVAAPSVFIFPPSDEQLKSGTASVVCLLNNFYPREAKVQWKVDNALQSGNSQESVTEQDSKDSTYSLSSTLTLSKADYEKHKVYACEVTHQGLSSPVTKSFNRGEC
heavy 1: EVQLVESGGGLVKPGGSLRLSCAASGFTFSSYTMSWVRQAPGKGLEWVASISSSGSNTYYPDSVKGRFTISRDNAKNNLYLQMNSLRAEDTALYYCARFDYGSSLDSWGQGTLLTVSSDKTHTEVQLVESGGGLVKPGGSLRLSCAASGFTFSSYTMSWVRQAPGKGLEWVASISSSGSNTYYPDSVKGRFTISRDNAKNNLYLQMNSLRAEDTALYYCARFDYGSSLDSWGQGTLLTVSSDKTHTASTKGPSVFPLAPSSKSTSGGTAALGCLVKDYFPEPVTVSWNSGALTSGVHTFPAVLQSSGLYSLSSVVTVPSSSLGTQTYICNVNHKPSNTKVDKKVEPKSCDKTHTCPPCPAPELLGGPSVFLFPPKPKDTLYITREPEVTCVVVDVSHEDPEVKFNWYVDGVEVHNAKTKPREEQYNNASRVVSVLTVLHQDWLNGKEYKCKVSNKALPAPIEKTISKAKGQPREPQVYTLPPCRDELTKNQVSLWCLVKGFYPSDIAVEWESNGQPENNYKTTPPVLDSDGSFFLYSKLTVDKSRWQQGNVFSCSVMHEALHNHYTQKSLSLSPG
heavy 2: QVQLVQSGAEVVKPGSSVKVSCEASGFTFTDSVITWVRQRPGQGLEWIGEIYPGSGNFYYNEKFQGRVTITADKSTSTAYMELSSLRSEDTAVYFCAMRRSSWGQGTLVTVSSASTKGPSVFPLAPSSKSTSGGTAALGCLVKDYFPEPVTVSWNSGALTSGVHTFPAVLQSSGLYSLSSVVTVPSSSLGTQTYICNVNHKPSNTKVDKKVEPKSCDKTHTCPPCPAPELLGGPSVFLFPPKPKDTLYITREPEVTCVVVDVSHEDPEVKFNWYVDGVEVHNAKTKPREEQYNNASRVVSVLTVLHQDWLNGKEYKCKVSNKALPAPIEKTISKAKGQPREPQVCTLPPSRDELTKNQVSLSCAVKGFYPSDIAVEWESNGQPENNYKTTPPVLDSDGSFFLVSKLTVDKSRWQQGNVFSCSVMHEALHNRFTQKSLSLSPG
light 2: DVVMTQTPLSLSVTPGQPASISCKSSQTIVHSNSKTYLEWYLQKPGQSPQLLIYKVSSRFSGVPDRFSGSGSGTDFTLKISRVEAEDVGVYYCFQGSHVPLTFGQGTKLEIKRTVAAPSVFIFPPSDEQLKSGTASVVCLLNNFYPREAKVQWKVDNALQSGNSQESVTEQDSKDSTYSLSSTLTLSKADYEKHKVYACEVTHQGLSSPVTKSFNRGEC
notes: Trivalent: CODV arm VH1/VL1 C3_Hu10, VH2/VL2 C21_Hu11

- Kd [4]: 1.87 nM
- koff [4]: 0.0045 s⁻¹
- kon [4]: 2.41e+06 M⁻¹ s⁻¹
B9: triAb 3437 (bispecific antibody)
light 1: B7 light 1 with S22T, S30G, Y32N, S74T, T134S, N144Y, T186S
heavy 1: B7 heavy 1
heavy 2: B7 heavy 2
light 2: B7 light 2
notes: Trivalent: CODV arm VH1/VL1 C21_Hu11, VH2/VL2 C3_Hu11

- Kd [4]: 1.3 nM
- koff [4]: 0.004 s⁻¹
- kon [4]: 3.07e+06 M⁻¹ s⁻¹
B10: triAb 3439 (bispecific antibody)
light 1: B7 light 1 with S22T, Y32N, S74T, K128G, N144Y, I170V, N188S, A195F
heavy 1: B7 heavy 1 with K13Q, S50T, S56D, A75S, N78T, N84S, L113T
heavy 2: B7 heavy 2
light 2: B7 light 2
notes: Trivalent: CODV arm VH1/VL1 C21_Hu21, VH2/VL2 C3_Hu10

Second part, the binder before the results:

B1: anti-laminin-2 (anti-LG-5) monoclonal antibody clone AN01 (antibody, V domains shown)
VH: EVQLQQSGPELVKPGASVKMSCKASGYTFTSYNIHWVKQKPGQGLEWIGYINPYNDGTKYSEKFKGKATLTSDRSSSTAYMEVSSLTSEDSAVYYCAIYGNSYWGQGSTLTVSS
VL: DIVMTQAAPSIPVTPGESVSISCRSSKSLLHSNGNTYLYWFLQRPGQSPQRLIYYMSNLDSGVPDRFSGRGSGTDFTLRISRVEAEDVGVYYCMQGLEYPYTFGGGTKLEIK
notes: tested as immobilized mAb
- Kd [1]: 9.24 nM
- koff [1]: 0.000915 s⁻¹
- kon [1]: 99000 M⁻¹ s⁻¹

B2: humanized anti-laminin-2 antibody C3_Hu10 (antibody, V domains shown)
VH: B3 VH
VL: B3 VL with S22T, Y32N, S74T
notes: as for B3
- binding result [2]: no binding (tested: 200 nM)

B6: humanized anti-beta-DG antibody AS30SS_Hu6 (antibody, V domains shown)
VH: QVQLVQSGAEVVKPGSSVKVSCEASGFTFTDSVITWVRQRPGQGLEWIGEIYPGSGNFYYNEKFQGRVTITADKSTSTAYMELSSLRSEDTAVYFCAMRRSSWGQGTLVTVSS
VL: DVVMTQTPLSLSVTPGQPASISCKSSQTIVHSNSKTYLEWYLQKPGQSPQLLIYKVSSRFSGVPDRFSGSGSGTDFTLKISRVEAEDVGVYYCFQGSHVPLTFGQGTKLEIK
notes: also called AS30_Hu6; AS30 Hu6
- Kd [4]: 0.796 nM
- koff [4]: 0.00202 s⁻¹
- kon [4]: 2.54e+06 M⁻¹ s⁻¹

B8: triAb 3429 (bispecific antibody)
light 1: B7 light 1 with K16G, S22T, I58V, S74T, N76S, A83F, S142G
heavy 1: B7 heavy 1 with K136Q, S173T, S179D, A198S, N201T, N207S, L236T
heavy 2: B7 heavy 2
light 2: B7 light 2
notes: Trivalent: CODV arm VH1/VL1 C3_Hu11, VH2/VL2 C21_Hu21
- Kd [4]: 1.9 nM
- koff [4]: 0.00404 s⁻¹
- kon [4]: 2.13e+06 M⁻¹ s⁻¹
